Patent publication US8663655B2, “Method for transforming a bacterium belonging to the Streptococcus genus by natural competence” (Dupont Nutrition Biosciences APS, dated 2014)
Like-named read-outs stand apart in the source and are kept apart here.

Experiments:
[1] = target: STER-0316 homologue of S. thermophilus CNRZ1066 (Streptococcus thermophilus CNRZ1066)
[2] = target: T1, transcriptional regulator (Rgg) STER-0316 (Streptococcus thermophilus LMD-9); assay: cell-based or functional assay
T1 chain: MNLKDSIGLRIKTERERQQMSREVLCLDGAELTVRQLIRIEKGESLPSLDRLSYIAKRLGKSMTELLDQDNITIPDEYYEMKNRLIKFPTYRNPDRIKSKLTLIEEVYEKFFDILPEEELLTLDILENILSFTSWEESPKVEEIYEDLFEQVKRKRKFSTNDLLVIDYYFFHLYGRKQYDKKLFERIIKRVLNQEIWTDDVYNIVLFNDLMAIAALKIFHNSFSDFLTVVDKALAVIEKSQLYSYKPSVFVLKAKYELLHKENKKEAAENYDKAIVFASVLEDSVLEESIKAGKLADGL

[3] = target: STER-0316 homologue of S. thermophilus LMG18311 (Streptococcus thermophilus LMG18311)
[4] = target: STER-0316 homologue of S. thermophilus CNRZ1066 (Streptococcus thermophilus CNRZ1066); remark: listed apart in the source
[5] = target: STER-0316 homologue of S. thermophilus LMG18311 (Streptococcus thermophilus LMG18311); remark: listed apart in the source
[6] = target: STER-0316 homologue of S. thermophilus CNRZ1066 (Streptococcus thermophilus CNRZ1066); remark: listed apart in the source

| Molecule | Transformation rate with peptide addition (1 µM) [2] | further results |
| --- | --- | --- |
| synthetic peptide PYFTGCL | – | Transformation rate of S. thermophilus CNRZ1066 with peptide addition (1 µM) [1]: 3.48e-07 |
| PYFAGCL [synthetic peptide PYFAGCL] | 0.00478 | Transformation rate of S. thermophilus LMG18311 with peptide addition (1 µM) [3]: 0.000317; Transformation rate of S. thermophilus CNRZ1066 with peptide addition (1 µM) [4]: 0.000369 |
| ILPYFAGC [synthetic peptide ILPYFAGC] | < 1e-08 | – |
| ILPYFAG [synthetic peptide ILPYFAG] | < 1e-08 | – |
| AILPYFAGC [synthetic peptide AILPYFAGC] | < 1e-08 | – |
| LPYFAGCL [synthetic peptide LPYFAGCL] | 0.00318 | Transformation rate of S. thermophilus LMG18311 with peptide addition (1 µM), donor pGIUD0855cat [5]: 0.13; Transformation rate of S. thermophilus CNRZ1066 with peptide addition (1 µM), donor pGIUD0855cat [6]: 0.03 |
| PYFAG [synthetic peptide PYFAG] | < 1e-08 | – |
| LPYFAGC [synthetic peptide LPYFAGC] | < 1e-08 | – |
| PYFAGC [synthetic peptide PYFAGC] | < 1e-08 | – |
| ILPYFAGCL [synthetic peptide ILPYFAGCL] | 0.00342 | – |
| AILPYFAGCL [synthetic peptide AILPYFAGCL] | 0.00221 | – |
